Results taken from article PMC10072072 (mAbs, 2023).

Assays:
[1] = molecular target: CD3 on the surface of cyno HSC-F T cells (Macaca fascicularis (HSC-F), UniProt Q95LI5;Q95LI8); assay: flow cytometry on cells
[2] = molecular target: CD3 on the surface of human Jurkat T cells (Homo sapiens (Jurkat), UniProt P07766;P04234); assay: flow cytometry on cells
[3] = molecular target: Cyno CD3εδ heterodimer, Fc fusion (Macaca fascicularis, UniProt Q95LI5;Q95LI8); assay: BLI
[4] = molecular target: Human CD3 epsilon-delta (εδ) heterodimer, Fc fusion (Homo sapiens, UniProt P07766;P04234); assay: BLI
Chain of Human CD3 epsilon-delta (εδ) heterodimer, Fc fusion (P07766 23-126, stated change not applied, chain 1 of 2): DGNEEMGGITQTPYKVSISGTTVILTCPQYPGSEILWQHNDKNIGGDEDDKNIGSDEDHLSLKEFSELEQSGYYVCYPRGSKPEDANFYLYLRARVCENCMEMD
Chain of Human CD3 epsilon-delta (εδ) heterodimer, Fc fusion (P04234 22-100, stated change not applied, chain 2 of 2): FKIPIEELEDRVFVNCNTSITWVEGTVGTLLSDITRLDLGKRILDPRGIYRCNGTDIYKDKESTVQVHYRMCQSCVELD

Chain of CD3 on the surface of cyno HSC-F T cells (Q95LI5 22-198, one chain of several): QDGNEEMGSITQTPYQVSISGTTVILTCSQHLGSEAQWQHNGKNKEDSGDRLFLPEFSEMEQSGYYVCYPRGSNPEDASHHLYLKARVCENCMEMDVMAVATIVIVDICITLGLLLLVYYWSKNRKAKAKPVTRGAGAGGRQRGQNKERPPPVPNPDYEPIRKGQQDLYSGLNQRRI
Chain of Cyno CD3εδ heterodimer, Fc fusion (Q95LI5 22-117, stated change not applied, chain 1 of 2): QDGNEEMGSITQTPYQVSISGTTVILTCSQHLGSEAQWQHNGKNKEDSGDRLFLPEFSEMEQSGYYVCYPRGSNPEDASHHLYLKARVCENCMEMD
Chain of Cyno CD3εδ heterodimer, Fc fusion (Q95LI8 22-100, stated change not applied, chain 2 of 2): as the sequence (P04234 22-100, stated change not applied, chain 2 of 2) above, with I5V, N15K, I20V, S32T, D33N, I34N, T64A, S74N counted along it
Chain of CD3 on the surface of human Jurkat T cells (P07766 23-207, one chain of several): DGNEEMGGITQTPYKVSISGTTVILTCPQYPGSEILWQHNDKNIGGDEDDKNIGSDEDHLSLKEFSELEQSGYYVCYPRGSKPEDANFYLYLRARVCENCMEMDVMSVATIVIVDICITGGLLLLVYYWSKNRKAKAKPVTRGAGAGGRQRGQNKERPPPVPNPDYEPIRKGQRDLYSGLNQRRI

| Binder | binding result [1] | binding result [2] | binding result [3] | binding result [4] |
| --- | --- | --- | --- | --- |
| ADI-26906 IgG1 variant L3-R94E (antibody, V domains shown) VH: QVQLVQSGAEVKKPGASVKVSCKASGFNIKDYYMHWVRQAPGQRLEWMGWIDLENANTIYDAKFQGRVTITRDTSASTAYMELSSLRSEDTAVYYCARDAYGRYFYDVWGQGTLVTVSS VL: DIVMTQSPDSLAVSLGERATINCKSSQSLLNARTGKNYLAWYQQKPGQPPKLLIYWASTRESGVPDRFSGSGSGTDFTLTISSLQAEDVAVYYCKQSYSERTFGGGTKVEIK | binds | binds | binds | binds |
| ADI-26906 IgG1 (antibody, V domains shown) VH: QVQLVQSGAEVKKPGASVKVSCKASGFNIKDYYMHWVRQAPGQRLEWMGWIDLENANTIYDAKFQGRVTITRDTSASTAYMELSSLRSEDTAVYYCARDAYGRYFYDVWGQGTLVTVSS VL: DIVMTQSPDSLAVSLGERATINCKSSQSLLNARTGKNYLAWYQQKPGQPPKLLIYWASTRESGVPDRFSGSGSGTDFTLTISSLQAEDVAVYYCKQSYSRRTFGGGTKVEIK | binds | – | binds | – |
| ADI-26906 Fab (from CHO-produced IgG, papain digest) (Fab, V domains shown) VH: QVQLVQSGAEVKKPGASVKVSCKASGFNIKDYYMHWVRQAPGQRLEWMGWIDLENANTIYDAKFQGRVTITRDTSASTAYMELSSLRSEDTAVYYCARDAYGRYFYDVWGQGTLVTVSS VL: DIVMTQSPDSLAVSLGERATINCKSSQSLLNARTGKNYLAWYQQKPGQPPKLLIYWASTRESGVPDRFSGSGSGTDFTLTISSLQAEDVAVYYCKQSYSRRTFGGGTKVEIK | binds | – | – | – |
